Data published in patent US20260116980A1.
Values belong to the binder of their own block, whether it stands above or below them.

Tests used:
[1] = target: B7H3 on H358 tumor cells (UniProt Q5ZPR3); test: flow cytometry on H358 cells, His-tag antibody iFluor 488 detection; MFImax of the four parameter fit
[2] = target: B7H3 on H358 tumor cells (UniProt Q5ZPR3); test: flow cytometry on H358 cells, His-tag antibody iFluor 488 detection, four parameter logistic model
[3] = target: B7H3 on H358 tumor cells (UniProt Q5ZPR3); test: FACS on H358 cells, 1 h on ice, fluorescence-labelled anti-human Fc

B7H3 on H358 tumor cells, sequence (Q5ZPR3 29-534): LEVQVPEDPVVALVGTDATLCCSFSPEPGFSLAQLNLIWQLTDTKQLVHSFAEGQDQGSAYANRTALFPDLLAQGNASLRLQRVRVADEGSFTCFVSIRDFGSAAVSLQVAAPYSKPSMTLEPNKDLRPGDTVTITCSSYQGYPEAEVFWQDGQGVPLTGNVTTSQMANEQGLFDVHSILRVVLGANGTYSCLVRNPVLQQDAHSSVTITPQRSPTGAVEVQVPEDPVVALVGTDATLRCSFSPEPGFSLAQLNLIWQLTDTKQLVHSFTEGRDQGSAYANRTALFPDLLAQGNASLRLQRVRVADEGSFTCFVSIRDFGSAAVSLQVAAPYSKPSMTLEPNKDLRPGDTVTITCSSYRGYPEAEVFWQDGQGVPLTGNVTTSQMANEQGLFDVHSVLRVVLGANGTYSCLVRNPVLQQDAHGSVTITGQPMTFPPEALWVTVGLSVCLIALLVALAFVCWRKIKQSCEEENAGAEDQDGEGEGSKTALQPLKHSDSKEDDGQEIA

MFI [1]: 782000 | EC50 [2]: 2.05 nM
B1: scFv of BGA-6938 VL-VH (scFv)
scFv: EIVLTQSPGTLSLSPGERATLSCRTSQSINAILLAWYQQKPGQAPRLLIYGASSRATGIPDRFSGSGSGTDFTLSISRLEPEDFAVYYCQQYGSSPRTFGQGTKVEIKGGGGSGGGGSGGGGSGGGGSQVQLQESGPGLVKPSGTLSLTCAVSGGSISTSNYWNWVRQSPGKGLEWIGEIYPTGNTNYSPSLKSRVTISIDKSKNQFSLKLNSVTAADTAVYYCARGYNWFDPWGQGTLVTVSSHHHHHH

EC50 (read off the curve) [3]: 0.5 nM
B2: BGA-6938 in wildtype IgG1/kappa format (antibody, V domains shown)
VH: QVQLQESGPGLVKPSGTLSLTCAVSGGSISTSNYWNWVRQSPGKGLEWIGEIYPTGNTNYSPSLKSRVTISIDKSKNQFSLKLNSVTAADTAVYYCARGYNWFDPWGQGTLVTVSS
VL: EIVLTQSPGTLSLSPGERATLSCRTSQSINAILLAWYQQKPGQAPRLLIYGASSRATGIPDRFSGSGSGTDFTLSISRLEPEDFAVYYCQQYGSSPRTFGQGTKVEIKR
